Data from the nanobody polyreactivity screen of Harvey et al. (2022).

Test: yeast display, Sf9 membrane polyspecificity reagent, FACS + sequencing; frameworks hold sequencing errors
Outline: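 Using colony PCR, genes from sorted yeast display clones were amplified, then sequenced on MiSeq at 2 × 250 and filtered by CDR length. The clones had been stained with 10% biotinylated, detergent-solubilized Sf9 membrane reagent for 1 hour at 4 °C and sorted by FACS into low and high (top ~1%) gates on anti-HA and streptavidin fluorescence. Polyreactivity labels come from the gate of origin.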

Sequence	polyreactivity (PSR sort gate)
QVQLVESGGGLVQAGGSLRLSCAASGSIFHTYLMGWYRQAPGKERELVASSTRSGGSTYYADSVKGRFTISRDNAKNTVYLQMNSLKPEDTAVYYCAATYRTANHRYYYWGQGTQVTVSS	high polyreactivity
QVQLVESGGGLVQAGGSLRLSCAASGSIFHYNAMGWYRQAPGKERELVAAITSGGSTYYADSVKGRFTISRDNAKKTVYLQMNSLKPEDTAVYYCATVFYRTRYVPYGYWGQGTQVTVSS	low polyreactivity
QVQLVESGGGLVQAGGSLRLSCAASGSIFHYNAMGWYRQAPGKERELVARISVNGGRTYYADSVKGRFTISRDNAKNTDYLQMNSLKPEDTAVYYCAVEGVWRSFFYGYDSWGQGTQVTVSS	low polyreactivity
QVQLVESGGGLVQAGGSLRLSCAASGSIFHYYAMGWYRQAPGKERELVAAISWSGGRTNYADSVKGRFTISRDNAKNTVYLQMNSLKPEDTAVYYCAAAERSYSGGGKIGKYYYWGQGTQVTVSS	high polyreactivity
QVQLVESGGGLVQAGGSLRLSCAASGSIFIANAMGWYRQAPGKERELVAAITLNGGSTYYADSVKGRFTISRDNAKNTVYLQMNSLKPEDTAVYYCAADWVWVAPQYWIDEYDYWGQGTQVTVSS	low polyreactivity
QVQLVESGGGLVQAGGSLRLSCAASGSIFIANAMGWYRQAPGKERELVASISSGGSTNYADSVKGRFTISRDNAKNTVYLQMNSLKPEDTAVYYCAADGTDDYGGDFYLWVDYWGQGTQVTVSS	low polyreactivity
QVQLVESGGGLVQAGGSLRLSCAASGSIFIAYGMVWYRQEPGKERELVAAITVSGGNTYYADSVKGRFTISRDNAKNTVYLQMNSLKPEDTAVYYCAADYWYYYGKVLYDYWGQGTQVTVSS	low polyreactivity
QVQLVESGGGLVQAGGSLRLSCAASGSIFIDYAMGWYRQAPGKERELVAAISWSGGSTYYADSVKGRFTISRDNAKNTVYLQMNSLKPEDTAVYYCAAYSHVSIWYDYDYWGQGTQVTVSS	low polyreactivity
QVQLVESGGGLVQAGGSLRLSCAASGSIFIGNTMGWYRPAPGNERELVATIRRSGSRTYYADSVKGRFTISRDNAKNTVYLQMNSLKPEDTAVYYCAADRLRTSGYKTIYDYWGQGTQVTVSS	low polyreactivity
QVQLVESGGGLVQAGGSLRLSCAASGSIFIGYAMGWYRQAPGKERELVAAISWSGDSTYYADSVKGRFTISRDNAKNTVYLQMNSLKPEDTAGYYCAADDLDYDNYYQITGEYDYWGQGTQVTVSS	high polyreactivity
QVQLVESGGGLVQAGGSLRLSCAASGSIFIGYAMGWYRQAPGKERELVASIRNGGSTNYADSVKGRFTITRDNAKNTVYLQMNSLKPEDTAVYYCAGRYPVFLVSFGFDYWGQGTQVTVSS	low polyreactivity
QVQLVESGGGLVQAGGSLRLSCAASGSIFIQYAMGWYRQAPGKERELVAAITSGGGSTYYADSVKGRFTISRDNAKNTVYLQMNSLKPEDTAVYYCAVDRTRRPAVPYVTLDRGYCGQGTQVTVSS	low polyreactivity
QVQLVESGGGLVQAGGSLRLSCAASGSIFIQYAMGWYSQAPGKERELVAAINSSGGRTYYADSVKGRFTISRDNAKNTVYLQMNSLKPEDTAVYYCAADPGSSFDWGQGTQVTVSS	low polyreactivity
QVQLVESGGGLVQAGGSLRLSCAASGSIFIRYAMGWYRQAPGKERELVASISRSGGSTYYADSVKGRFTISRDNAKNTVYLQMNSLKPEDTAVYYCAARRVRPNGYTSSPLDYWGQGTQVTVSS	high polyreactivity
QVQLVESGGGLVQAGGSLRLSCAASGSIFISYAMGWYRQAPGKERELVAAISSGGSTNYADSVKGRFTISRDNAKNTVYLQMNSLIPEDTAVYYCAAASAAGYDYWGQGTQVTVSS	low polyreactivity
QVQLVESGGGLVQAGGSLRLSCAASGSIFISYARGWYRQAPGKERELVAAITWSGDSTYYADSVKGRFTISRDNAKNTVYLQMNSLKPEDTAVYYCAADWYFRNQRGYYWGQGTQVTVSS	low polyreactivity
QVQLVESGGGLVQAGGSLRLSCAASGSIFITYAMGWYRQAPGKERELVAAIRDSGDRTYYADSVKGRFTISRDNAKNTVYLQMNSLKPEDTAVYYCNARWQKPLKYDYWGQGTQVTVSS	low polyreactivity
QVQLVESGGGLVQAGGSLRLSCAASGSIFIYAMGWYRQAPGKERELVATISWSGTSTYADSVKGRFTISRDNAKNTVYLQMNSLKPEDTAVYYCNKLKRTYYSSGYPHDYWGQGTQVTVSS	low polyreactivity
QVQLVESGGGLVQAGGSLRLSCAASGSIFIYNVMGWYRQAPGKERELVATIRGSGGSTYYADSVKGRFTISRDNAKNTVYLQMNSLKPEDTAVYYCARRDYPYQWGRAYNYWGQGTQVTVSS	high polyreactivity
QVQLVESGGGLVQAGGSLRLSCAASGSIFIYYAMGWYRQAPGKEREFVADISYSGDSTYYADSVKGRFTISRDNAKNTVYFQMNSLKPEDTAVYYCAADTWYDAGVYPYDYWGQGTQVTVSS	high polyreactivity
QVQLVESGGGLVQAGGSLRLSCAASGSIFIYYAMGWYRQAPGKERELVAAISWSGDRTYYADSVKGRFTISRDNAKNTVYLQMNSLKPEDTAVYYCAARVVTPSAFPRYYWGQGTQVTVSS	high polyreactivity
QVQLVESGGGLVQAGGSLRLSCAASGSIFIYYAMGWYRQAPGKERELVAAISYSDGDTYYADSVKGRFTISRDNAKNTVYLQMNSLKPEDTAVYYCAAEVPQYYDVGWEDYCGQGTQVTVSS	high polyreactivity

Sequence	polyreactivity (PSR sort gate)
QVQLVESGGGLVQAGGSLRLSCAASGSIFIYYAMGWYRQAPGKEREMVADITFSAGTNTYYADSVKGRFTISRDNAKNTVYLQKNSLKPEDTAVYYCNADRGFIGSITEYDYWGQGTQVTVSS	low polyreactivity
QVQLVESGGGLVQAGGSLRLSCAASGSIFIYYTMGWYRQAPGKEREFVASISWRGGRTYYADSVKGRFTISRDNAKNTVYLQMNSLKPEETAVYYCAAEQSRGIEFSYYSLYYWGQGTQVTVSS	high polyreactivity
QVQLVESGGGLVQAGGSLRLSCAASGSIFKDYAMGWYRQAPGKERELVASITSGGRTYADSVKGRFTISRDNAKNTVYLQMNSLKPEDTAVYYCNTAHSKAWQYDYWGQGTQVTVSS	high polyreactivity
QVQLVESGGGLVQAGGSLRLSCAASGSIFKFYAMGWYRQAPGKERELVAAISQSGGRTYYADSVKGRFTISRDNAKNTVYLQMNSLKPEDTAVYYCAKSVFPVYGRPSNLWFNYWGQGTQVTVSS	high polyreactivity
QVQLVESGGGLVQAGGSLRLSCAASGSIFKFYTMGWYRQAPGKERELVAAISSSDGSTHYADSVKGRFTISRDNAKNTVYLQMNSLKPEDTAVYYCARRRYSRYSVTRGNYWGQGTQVTVSS	high polyreactivity
QVQLVESGGGLVQAGGSLRLSCAASGSIFKGYAMGRYIQAPGKERELVAAISSSGGSTYYADSVKGRFTISRDNAKNTVYLQMNSLKPEDTAVYYCNTDRYYTYDYLGQGTQVTVSS	low polyreactivity
QVQLVESGGGLVQAGGSLRLSCAASGSIFKGYAMGWYRQAPGKERELVAAITYSGGSTYYADSVKGRFTISRDNAKNTVYLQMNSLKPEDTAVYYCAADSEQDNLRYYRWVWYYYWGQGTQVTVSS	low polyreactivity
QVQLVESGGGLVQAGGSLRLSCAASGSIFKGYDMGWYRQAPGKERELVAAISSGSTNYADSVKGRFTISRDNAKNTVYLQMNSLKPEDTAVYYCNADLGRATFYQRVVIERGGYWGQGTQVTVSS	low polyreactivity
QVQLVESGGGLVQAGGSLRLSCAASGSIFKIYAMGWYRQAPGKARELVATISINGGSTYYADSVKGRFTISRDNAKNTVYLQMNSLKPEDTAVYDCNKVNEYITSQDDYGGQGTQVTVSS	low polyreactivity
QVQLVESGGGLVQAGGSLRLSCAASGSIFKKYAMGWYRQAPGKERELVAAISSGGGSTYYADSVKGRFTISRDNAKNTVYLQMNSLKPEDTAVYYCNARIQYFKYRGYEYWGQGTQVTVSS	high polyreactivity
QVQLVESGGGLVQAGGSLRLSCAASGSIFKLYAMGWYRQAPGKERELVASISVSGGSTYYADSVKGRFTISRDNAKNTVYLQMNSLKPEDTAVYYCAAEKRSSIVGSGGNYWGQGTQVTVSS	low polyreactivity
QVQLVESGGGLVQAGGSLRLSCAASGSIFKNYAMGWYRQAPGKERELVASITTGASTNYADSVKGLFTISRDNAMNTVYLQMNSLKPEDSAVYYCAAYRPTYYAYYYWGQGTQVTVSS	high polyreactivity
QVQLVESGGGLVQAGGSLRLSCAASGSIFKQNAMGRYRQAPGKESELVSDITSCGGSTYYADSVKGRFTISRDNAKNTVYLQMNSLKPEDTAVYYCNVVETSLELGWQAFDYWGQGTQVTVSS	low polyreactivity
QVQLVESGGGLVQAGGSLRLSCAASGSIFKRYAMGWYRQAPGKERELVAAISRRGASTYYADSVKGRFTISRDNAKNTVYLQMNSLKPEDTAVYYCNAYLPRQGPSGRPRSQYDSWGQGTQVTVSS	high polyreactivity
QVQLVESGGGLVQAGGSLRLSCAASGSIFKSNAMGWYRQAPGKERELVAAISNGGITNYADSVKGRFTISRDNAKNTVFLQMNSLKPEDTAVYYCATSDVREIWVDYWGQGTQVTVSS	low polyreactivity
QVQLVESGGGLVQAGGSLRLSCAASGSIFKSYAMGWYRQAPGKERELVAAITWRSGRTYYADSVKGRFTISRDNAKNTVYLQMNSLKPEDTAVYYCAADDTSYYIYSYDYWGQGTQVTVSS	low polyreactivity
QVQLVESGGGLVQAGGSLRLSCAASGSIFKSYAMGWYRQAPGKERELVAVISDSGSTYYADSVKGRFTISRDNAKNTVYLQKNSLKPEDTAVYYCRGRGRRNEYWGQGTQVTVSS	high polyreactivity
QVQLVESGGGLVQAGGSLRLSCAASGSIFKSYAMGWYRQAPGKERELVAVISDSGSTYYADSVKGRFTISRDNAKNTVYLQMNSLKPEDTAVYYCRGRGRRNEYWGQGTQVTVSS	high polyreactivity
QVQLVESGGGLVQAGGSLRLSCAASGSIFKTNAMGWYRQAPRKERELVAGISNVGSTNYADSVKGRFTISRDNAKNTVYLQMNSLKPEDTAVYYCAAPYTSQTIPDYVRYFIEYDYWGQATQVTVSS	low polyreactivity
QVQLVESGGGLVQAGGSLRLSCAASGSIFKTYAMGWSRPAPGKERELVAAITSSGGSTYYADSVKGRFTISRDNAKNTVDLQMNSLKPEDTAVYDCAALSGQARRMYYWGQGTQVTVSS	high polyreactivity
QVQLVESGGGLVQAGGSLRLSCAASGSIFKVYAMGWYRQAPGKERELVASISYSGGSTYYADSVKGRFTISRDNAKNTVYLQMNSLKPEDTAVYYCNADTITYQGYDYGYWGQGTQVTVSS	low polyreactivity
